± gives the standard deviation of the averaged measurements.
System: ATP
Experiment: switch fluorescence ratio, 500 uM ATP over buffer (Cy3 cluster intensity, sum of 5 cycles each) (fold (ratio)); higher = stronger signal-on switching upon ATP binding; sequences stand for … in TCGTCGGCAGCGTCAGATGTGTATAAGAGACAGTTTTTTTTTTTTTTTTTTTTTTTTT…TC
Conditions: aptamer strand: ATP DNA aptamer (quencher-CACCTGGGGGAGTATTGCGGAGGAAGG + anchor), 100 nM annealed; ATP concentration: 500 uM
In short: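 Per cluster, summed Cy3 intensity from the target cycles was divided by that from the buffer cycles to give the fluorescence ratio, then averaged per switch-domain sequence. Clusters outside 100-1000 RFU were excluded. The Cy3-labelled switching-strand clusters, on a modified Illumina MiSeq flow-cell, were annealed to 100 nM quencher-labelled ATP aptamer and imaged in selection buffer, then after 15 min with 500 uM ATP at 22 °C, for five cycles with NaOH stripping and re-annealing between them.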
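Note: ATP exposure 15 min at 22 °C before imaging.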

TTTTCAGGAG
switch fluorescence ratio: 1.03 ± 0.016

GCCCGGGGGG
switch fluorescence ratio: 1.03 ± 0.0083

CGCGACTTAA
switch fluorescence ratio: 1.044 ± 0.0047

CTCATTTGAC
switch fluorescence ratio: 1.032 ± 0.0056

TAAAATCCTG
switch fluorescence ratio: 1.05 ± 0.039

TTGTTTTTTA
switch fluorescence ratio: 1.01 ± 0.016

TTTTTATCTT
switch fluorescence ratio: 1.03 ± 0.046

GGGTCGCCTG
switch fluorescence ratio: 0.992 ± 0.033

AGAGGTAAGG
switch fluorescence ratio: 0.983 ± 0.019

ATTTATCTTT
switch fluorescence ratio: 1 ± 0.032

CGACGAACTT
switch fluorescence ratio: 1.236 ± 0.0059

TTTTTGCCGC
switch fluorescence ratio: 1.02 ± 0.012

GTGGTATATG
switch fluorescence ratio: 0.997 ± 0.0073

GTTATTGGTA
switch fluorescence ratio: 1.01 ± 0.018

GAGTAACCAG
switch fluorescence ratio: 0.979 ± 0.036

TGAGGTGCGG
switch fluorescence ratio: 0.996 ± 0.024

TTTGTTTTGC
switch fluorescence ratio: 0.971 ± 0.019

CGTTCTGTTT
switch fluorescence ratio: 1 ± 0.029

AGTTTGGGCC
switch fluorescence ratio: 1.017 ± 0.0059

GCATCTCGCG
switch fluorescence ratio: 1.01 ± 0.021

TGGGGTCATG
switch fluorescence ratio: 0.9887 ± 0.0096

GGCGGGGGTC
switch fluorescence ratio: 1.01 ± 0.029

TGTAATTTGA
switch fluorescence ratio: 0.984 ± 0.021

GGGGGATAGC
switch fluorescence ratio: 0.991 ± 0.023

TGCATGTCGC
switch fluorescence ratio: 0.991 ± 0.025

TTAGACACAA
switch fluorescence ratio: 1.01 ± 0.046

AACGGGCTTT
switch fluorescence ratio: 0.969 ± 0.013

ACAGGGGAAT
switch fluorescence ratio: 1.01 ± 0.012

TTGAGTAGGT
switch fluorescence ratio: 0.987 ± 0.031

GGGAGGAGTG
switch fluorescence ratio: 0.98 ± 0.029

AAAGGCCATG
switch fluorescence ratio: 1.02 ± 0.0045

GGGTATTGCA
switch fluorescence ratio: 0.996 ± 0.018

TAGAATTCTT
switch fluorescence ratio: 0.997 ± 0.078

CCATGGGGGG
switch fluorescence ratio: 1.11 ± 0.18

TATGTCTTTA
switch fluorescence ratio: 1 ± 0.017

CCAGGGCGGG
switch fluorescence ratio: 0.99 ± 0.043

ATGATATGTT
switch fluorescence ratio: 0.992 ± 0.034

AAAGGGGGAC
switch fluorescence ratio: 1.04 ± 0.089

CGTGTGCCGA
switch fluorescence ratio: 1.01 ± 0.057

TTTTGATTGT
switch fluorescence ratio: 1.01 ± 0.055

TTTAGGTTAA
switch fluorescence ratio: 0.9752 ± 0.0074

AATGACGTGT
switch fluorescence ratio: 1 ± 0.052

TAAGAGTATC
switch fluorescence ratio: 1.01 ± 0.019

GGCTTAGGGC
switch fluorescence ratio: 1.02 ± 0.027

AGGGTATTCA
switch fluorescence ratio: 1.01 ± 0.02

TGAGTGAGTG
switch fluorescence ratio: 0.9933 ± 0.0015

TTAAAGCTTA
switch fluorescence ratio: 1.02 ± 0.04

CGGATGTGTT
switch fluorescence ratio: 0.951 ± 0.048

TAAGAGGGAG
switch fluorescence ratio: 0.966 ± 0.036

CTAGGCAGTT
switch fluorescence ratio: 1.01 ± 0.012

TTAAAGCAGT
switch fluorescence ratio: 1.56 ± 0.47

TTATTGATCT
switch fluorescence ratio: 1 ± 0.065

GTATGTGTCG
switch fluorescence ratio: 1.01 ± 0.017

GGGGTCAGGA
switch fluorescence ratio: 1.03 ± 0.029

AACTGATTTC
switch fluorescence ratio: 0.963 ± 0.03

TTTTGTGAAT
switch fluorescence ratio: 0.9561 ± 0.0045

TTTATCTGAA
switch fluorescence ratio: 0.9783 ± 0.0017

CAAAAAAAAA
switch fluorescence ratio: 1 ± 0.017

CATTGCGATC
switch fluorescence ratio: 2.08 ± 0.3

TGGACTGGGG
switch fluorescence ratio: 0.9861 ± 0.0056

CGTGTAAGGG
switch fluorescence ratio: 0.974 ± 0.04

AGTATTTTG
switch fluorescence ratio: 0.96 ± 0.013

TGCAAGAAGG
switch fluorescence ratio: 0.9832 ± 0.0053

TACACCGTCA
switch fluorescence ratio: 1.08 ± 0.023

TGTTCTTTTT
switch fluorescence ratio: 0.993 ± 0.038

CTTTTGACTG
switch fluorescence ratio: 1.05 ± 0.043

TAAGCTGGCG
switch fluorescence ratio: 1.06 ± 0.14

CTCGTCTGAG
switch fluorescence ratio: 1 ± 0.023

GGATCCACGG
switch fluorescence ratio: 1.012 ± 0.005

ATCTTGTGGC
switch fluorescence ratio: 0.972 ± 0.032

AATACTGATG
switch fluorescence ratio: 1.007 ± 0.0032

GGTCGCGGAT
switch fluorescence ratio: 1.01 ± 0.019

TGACCTGAGA
switch fluorescence ratio: 1.04 ± 0.021

GTATGAAGTT
switch fluorescence ratio: 0.982 ± 0.028

TCACCATATT
switch fluorescence ratio: 1.05 ± 0.02

GGAATGGGGA
switch fluorescence ratio: 1 ± 0.037

ATATTCTTCC
switch fluorescence ratio: 1.96 ± 0.18

GATGAGGGGG
switch fluorescence ratio: 1.03 ± 0.09

GTTGGGTGGG
switch fluorescence ratio: 0.984 ± 0.013

GTTGTTATTT
switch fluorescence ratio: 1 ± 0.011

TAATTAGTGG
switch fluorescence ratio: 0.9832 ± 0.0051

TTGCTATGAA
switch fluorescence ratio: 1.01 ± 0.054

TATTGTGACT
switch fluorescence ratio: 1.021 ± 0.01

CAGATTGAAT
switch fluorescence ratio: 0.982 ± 0.024

CGCCATTACG
switch fluorescence ratio: 1.65 ± 0.024

GAATGGGGCC
switch fluorescence ratio: 1.01 ± 0.035

TTTCATAGC
switch fluorescence ratio: 1.1 ± 0.065

CGGGCAGGTT
switch fluorescence ratio: 1.11 ± 0.18

AAGCGTCTCA
switch fluorescence ratio: 0.997 ± 0.011

TGGTGAGGAG
switch fluorescence ratio: 0.98 ± 0.013

TCCAAGGGAT
switch fluorescence ratio: 1.01 ± 0.012

CATAAGTGGG
switch fluorescence ratio: 0.973 ± 0.03

TGGTTACAAA
switch fluorescence ratio: 0.997 ± 0.015

TAGCTTTGGG
switch fluorescence ratio: 1 ± 0.011

GATAGTACGG
switch fluorescence ratio: 1.01 ± 0.015

TACGGTGGGT
switch fluorescence ratio: 0.982 ± 0.032

GGGGGCGTCA
switch fluorescence ratio: 1.02 ± 0.017

TATTTAGGAC
switch fluorescence ratio: 0.99 ± 0.028

AAGCGTCTGG
switch fluorescence ratio: 1.02 ± 0.024

CGATTGGGAC
switch fluorescence ratio: 1.01 ± 0.02

— the supplement of paper PMC10126150
